According to publication PMC3136511:

Biological target: Nup145N(443–605) (Saccharomyces cerevisiae) (UniProt P49687)
Test: SAXS

dimer fraction: 98% | stoichiometry N: 2
Substance: Nup145N(443–605) (from UniProt P49687 443-605) (domain or fragment)
